In US20150219635A1 (UCB, published 2015):

What was measured:
[1] = target: T1, Fcε3-4 (sub-fragment of IgE-Fc lacking the Cε2 domains) (human, UniProt P01854-1 209-428, limits assumed); assay: stopped-flow tryptophan fluorescence, Fab in excess over Fcε3-4, two-step binding; column kon
T1 construct: domain: Fcε3-4 (Cε3-Cε4); Production and any glycosylation site mutations not described
Method: (§1) Experiments were carried out using a Chirascan Plus (Applied Photophysics Ltd) with a stopped-flow attachment at 20° C. in PBS buffer pH 7.4 and with pseudo-first order protein concentrations varied as required. Fluorescence was excited at 280 nm (1 nm slit width) and emitted fluorescence above 305 nm detected with a long-band pass. 6-10 runs were averaged for each experiment. Data were collected and analyzed using supplied software according to the manufacturer's instructions. Experimental transients were fitted either to single-exponential (Eq.1; [IgE-Fc] or [Fcε3-4]>[Fab] and only Fab¹ binding observable) or double-exponential (Eq.2; [Fab]>[IgE-Fc] or [Fcε3-4] and binding of both Fab¹ and Fab² observable) equations: […]
(§2) where F is the observed fluorescence, ΔFₙ is the fluorescence amplitude change for the nth transient, kobsn is the pseudo-first order rate constant for the nth step and Fₑ is the end-point fluorescence. The bimolecular association rate constants for Fab¹ (k₊₁) and Fab² (k₊₂) binding were determined by fitting the linear concentration dependences of kobs1 and kobs2 to Eq. 3: […]

[2] = target: T1, Fcε3-4 (sub-fragment of IgE-Fc lacking …); assay: stopped-flow tryptophan fluorescence, Fab in excess over Fcε3-4, two-step binding; column kon2
Method: as §1, §2

[3] = target: T1, Fcε3-4 (sub-fragment of IgE-Fc lacking …); assay: stopped-flow tryptophan fluorescence, Fab in excess over Fcε3-4, two-step binding; column koff
Method: as §1, §2

[4] = target: T1, Fcε3-4 (sub-fragment of IgE-Fc lacking …); assay: ITC, Fab titrated into Fcε3-4, sequential binding model; second Fab
Method: (§3) Experiments were carried out using a Microcal iTC200 calorimeter (GE Healthcare) at 20° C. in PBS buffer pH 7.4. Depending on the final ratio required, 25-30 μM of protein was used in the calorimeter cell and 10-20 fold higher concentrations were used in the syringe. The number and volume of injections were varied as appropriate. Heats of dilution were subtracted from the data before analysis. […] Analyses were carried out using MicroCal Origin, using a 1:1 binding model when IgE-Fc or Fcε3-4 was titrated into Fab, or a sequential 1:1 binding model when Fab was titrated into IgE-Fc or Fcε3-4.
(§4) One way to establish experimentally that IgE-Fc adopts an […] as it flips between two bent conformations, is to determine the number of Fab binding sites that are available for binding: if rigidly and exclusively bent, only one site will initially be accessible, but if it can flip, then two sites are accessible. We therefore studied the interaction between Fab and IgE-Fc by isothermal titration calorimetry (ITC) and compared with the binding to Fcε3-4 which, lacking the Cε2 domains, always has two accessible sites.

[5] = target: T1, Fcε3-4 (sub-fragment of IgE-Fc lacking …); assay: ITC, Fcε3-4 titrated into Fab, 1:1 binding model
Method: as §3, §4

[6] = target: T1, Fcε3-4 (sub-fragment of IgE-Fc lacking …); assay: stopped-flow tryptophan fluorescence, Fcε3-4 in excess over Fab (1:1 complex)
Method: as §1, §2

[7] = target: T1, Fcε3-4 (sub-fragment of IgE-Fc lacking …); assay: ITC, Fab titrated into Fcε3-4, sequential binding model; first Fab
Method: as §3, §4

T1 sequence (P01854 other isoform, or with tags, fused parts or gaps limits assumed): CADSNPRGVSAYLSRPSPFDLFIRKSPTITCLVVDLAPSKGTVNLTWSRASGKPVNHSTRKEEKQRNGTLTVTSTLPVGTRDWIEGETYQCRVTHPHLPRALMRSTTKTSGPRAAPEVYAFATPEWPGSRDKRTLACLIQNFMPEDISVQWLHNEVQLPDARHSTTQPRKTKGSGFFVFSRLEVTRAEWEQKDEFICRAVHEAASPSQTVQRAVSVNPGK

kon [1]: 1e+06 M⁻¹ s⁻¹ | kon [2]: 370000 M⁻¹ s⁻¹ | koff [3]: 0.95 s⁻¹ | Kd [4]: 980 nM | Kd [5]: 90 nM | kon [6]: 1e+06 M⁻¹ s⁻¹ | Kd [7]: 34 nM
B1: Fab7 (anti-human IgE Fab, human IgG1 Fab format) (Fab, V domains shown)
VH: QVQLQQSGPGLVKPSQTLSLTCGISGDSVSSNSAAWNWLRQSPSRGLEWLGRTYYRSKWYNDYAVSMKSRITINPDTSRNQFSLQLNSVTPEDTAVYYCARDGEISYDYYYYGMDVWGRGTLVTVSS
VL: QSVLTQPPSASGTPGQRVTISCSGSSSNIGNNGVNWYQQVPGKPPKLLIYYDDLLPSGVSDRFSGSKSGTSASLAISGLQSEDEADYYCEAWDDSLDGVVFGGGTKLTVLG
notes: Expressed transiently in CHO cells; also called anti-IgE Fab; Fab^1
